Biological target: EBOV VP35 WT oligomerization domain (Zaire ebolavirus, Yambuku-Mayinga) (UniProt Q05127)
Experiment: SEC-MALS

Substance: EBOV VP35 WT oligomerization domain (from UniProt Q05127 75-185) (domain or fragment)
- stoichiometry N: 4
